{"source": "paper PMC9503767", "about": "“Site-Differentiated Iron–Sulfur Cluster Ligation Affects Flavin-Based Electron Bifurcation Activity” (Metabolites, 2022)", "proteins": {"B1": {"name": "NfnL (large subunit of NADH-dependent reduced-ferredoxin: NADP+ oxidoreductase NfnSL) (Pyrococcus furiosus DSM 3638) (protein)", "chain": "MPRLIKDRVPTPERSVGERVRDFGEVNLGYSWELALREAERCLQCPVEYAPCIKGCPVHINIPGFIKALRENRDNPSKAVREALRIIWRDNTLPAITGRVCPQEEQCEGACVVGKVGDPINIGKLERFVADYAREHGIDDELLLEEIKGIKRNGKKVAIIGAGPAGLTCAADLAKMGYEVTIYEALHQPGGVLIYGIPEFRLPKEIVKKELENLRRLGVKIETNVLVGKTITFEELREEYDAIFIGTGAGTPRIYPWPGVNLNGIYSANEFLTRINLMKAYKFPEYDTPIKVGKRVAVIGGGNTAMDAARSALRLGAEVWILYRRTRKEMTAREEEIKHAEEEGVKFMFLVTPKRFIGDENGNLKAIELEKMKLGEPDESGRRRPIPTGETFIMEFDTAIIAIGQTPNKTFLETVPGLKVDEWGRIVVDENLMTSIPGVFAGGDAIRGEATVILAMGDGRKAAKAIHQYLSKEK", "notes": "isolated NfnL-WT subunit"}}, "substrate": "NC(=O)C1=CN([C@@H]2O[C@H](COP(=O)(O)OP(=O)(O)OC[C@H]3O[C@@H](n4cnc5c(N)ncnc54)[C@H](OP(=O)(O)O)[C@@H]3O)[C@@H](O)[C@H]2O)C=CC1", "test": "purified protein", "format": "biochemical, Pyrococcus furiosus", "conditions": "FAD; two [4Fe-4S] clusters oxidized by L-FAD"}
{"protein": "B1", "values": [{"measurement": "Km", "value": "1300 ± 100", "unit": "µM"}, {"measurement": "Vmax", "value": 3000, "unit": "µM/min"}, {"measurement": "kcat", "value": "2.3 ± 0.3", "unit": "s⁻¹"}, {"measurement": "kcat/Km", "value": "1700 ± 300", "unit": "M⁻¹ s⁻¹"}]}
